Experimental data published in patent publication US20240287172A1 (SCIRHOM, published 2024).

Legend:
hiR2-FL-R554A-T7 = biological target: T1, hiR2-FL-R554A-T7 (human, UniProt Q6PJF5 1-856); test: FACS on MEF-DKO cells expressing the variant, 3 µg/ml antibody
T1 sequence: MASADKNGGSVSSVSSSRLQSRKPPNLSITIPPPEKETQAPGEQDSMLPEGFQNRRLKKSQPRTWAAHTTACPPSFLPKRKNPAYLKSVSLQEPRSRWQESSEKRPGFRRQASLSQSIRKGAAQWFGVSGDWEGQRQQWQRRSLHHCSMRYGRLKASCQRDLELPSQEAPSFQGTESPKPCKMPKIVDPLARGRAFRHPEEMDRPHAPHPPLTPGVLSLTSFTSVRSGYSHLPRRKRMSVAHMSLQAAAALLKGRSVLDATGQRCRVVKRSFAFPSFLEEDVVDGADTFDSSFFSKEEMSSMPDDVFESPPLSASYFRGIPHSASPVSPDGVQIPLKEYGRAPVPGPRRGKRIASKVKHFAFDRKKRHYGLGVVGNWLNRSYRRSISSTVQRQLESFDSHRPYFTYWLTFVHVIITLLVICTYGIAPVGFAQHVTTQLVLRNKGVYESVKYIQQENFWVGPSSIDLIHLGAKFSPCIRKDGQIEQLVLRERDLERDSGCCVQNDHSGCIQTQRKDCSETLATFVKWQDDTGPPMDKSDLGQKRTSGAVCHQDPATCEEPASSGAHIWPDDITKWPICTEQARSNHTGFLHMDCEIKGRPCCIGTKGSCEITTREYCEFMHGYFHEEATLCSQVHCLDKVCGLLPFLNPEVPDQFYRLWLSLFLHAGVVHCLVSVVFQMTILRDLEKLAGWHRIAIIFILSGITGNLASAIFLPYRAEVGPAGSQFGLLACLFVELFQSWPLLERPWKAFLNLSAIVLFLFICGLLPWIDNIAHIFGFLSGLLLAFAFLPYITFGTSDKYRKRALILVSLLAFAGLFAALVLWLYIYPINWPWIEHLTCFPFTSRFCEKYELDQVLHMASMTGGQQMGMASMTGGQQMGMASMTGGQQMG
Summary of the method: (§1)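 Cells stained with purified antibody at 3 μg/ml for 1 h on ice, then with PE-conjugated goat anti-mouse IgG F(ab′)2 (1:100) for 1 h on ice in the dark. Binding read by flow cytometry; buffer-only staining as control.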

hiR2-FL-G587A-T7 = biological target: T2, hiR2-FL-G587A-T7 (human, UniProt Q6PJF5 1-856); test: as above
T2 sequence: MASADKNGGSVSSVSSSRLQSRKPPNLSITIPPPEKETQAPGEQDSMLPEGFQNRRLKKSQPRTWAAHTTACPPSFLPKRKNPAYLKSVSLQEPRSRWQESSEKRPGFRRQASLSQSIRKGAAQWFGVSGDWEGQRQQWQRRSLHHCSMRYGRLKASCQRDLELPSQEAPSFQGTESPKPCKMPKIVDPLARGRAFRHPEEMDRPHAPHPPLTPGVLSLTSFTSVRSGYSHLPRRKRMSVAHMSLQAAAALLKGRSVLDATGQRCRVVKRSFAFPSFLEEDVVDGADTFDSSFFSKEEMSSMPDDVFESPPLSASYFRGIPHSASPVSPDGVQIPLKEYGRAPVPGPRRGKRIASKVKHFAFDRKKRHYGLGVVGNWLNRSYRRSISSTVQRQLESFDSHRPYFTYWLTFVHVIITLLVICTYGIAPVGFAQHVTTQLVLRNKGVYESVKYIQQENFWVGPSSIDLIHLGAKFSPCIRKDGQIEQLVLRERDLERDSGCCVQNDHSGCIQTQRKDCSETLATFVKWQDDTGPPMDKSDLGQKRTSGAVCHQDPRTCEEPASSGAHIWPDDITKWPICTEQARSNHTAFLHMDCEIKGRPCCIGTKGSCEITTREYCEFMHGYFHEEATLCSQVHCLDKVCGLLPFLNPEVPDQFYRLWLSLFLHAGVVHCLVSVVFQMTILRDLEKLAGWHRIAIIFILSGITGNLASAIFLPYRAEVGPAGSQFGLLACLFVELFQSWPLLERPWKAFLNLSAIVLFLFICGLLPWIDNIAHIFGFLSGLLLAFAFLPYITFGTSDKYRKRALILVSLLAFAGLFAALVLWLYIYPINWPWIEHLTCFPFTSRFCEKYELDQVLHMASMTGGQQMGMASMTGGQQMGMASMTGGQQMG
Summary of the method: as §1

B1: antibody 48 (antibody, V domains shown)
VH: QVQLQQSGTELVRPGTSVKVSCKASGYAFTNYLIEWVKQRPGQGLEWIGVINPGSGFTKYNEKFKGKATLTADKSSSTVYMHLSSLTSEDSAVYFCARGLYRAMDYWGQGTSVTVSS
VL: DIQMTQSPASQSASLGESVTITCLASQTIATWLAWYQQKPGKSPQLLIYGATTLADGVPSRFSGGGSGTKFSFKISSLQAEDFVSYYCQQLYSTPYTFGGGTKLEIK
notes: mouse IgG, kappa light chain; also called clone #48; purified antibody 48
hiR2-FL-R554A-T7
  loss of binding vs wild type: ≥ 30%
hiR2-FL-G587A-T7
  loss of binding vs wild type: ≥ 30%

B2: antibody 50 (antibody, V domains shown)
VH: QVQLQQSGAELVRPGASVKVSCKASGYAFSNYLIEWVKQRPGQGLEWIGVINPGSGFTKYNEKFKGKATLTADKSSSTAYMQLSSLTSEDSAVYFCARGLYRAMDYWGQGTSVTVSS
VL: DIQMTQSPASQSASLGESVTITCLASQTIGTWLAWYQQKPGKSPQLLIYAAASLADGVPSRFSGGGSGTKFSFKISSLQAEDFVNYYCQQIYSTPYTFGGGTKLEIK
notes: mouse IgG, kappa light chain; also called clone #50; purified antibody 50
hiR2-FL-G587A-T7
  loss of binding vs wild type: ≥ 60%

B3: antibody 5 (antibody, V domains shown)
VH: QVTLKESGPGILQPSQTLSLTCSFSGFSLSTFGMGVGWIRQPSGKGLEWLAHIWWDDEKYYNSALKSRLTISKATSKNQAFLKIANVDTADTATYYCARISNYGSNYWYFNVWGTGTTVTVSS
VL: QVVLTQSPALMSASPGEKVTMTCSAGSSVSCMYWYQQKPGSSPRVLIYDTSNLASGVPARFTGSGSGTSYSLTISRMEAEDAASYYCQQWNSYPLTFGAGTKLELK
notes: mouse IgG, kappa light chain; also called clone #5; purified antibody 5
hiR2-FL-R554A-T7
  loss of binding vs wild type: ≥ 60%

B4: antibody 44 (antibody, V domains shown)
VH: QVTLKESGPGILQPSQTLSLTCSFSGFSLSTFGMGVGWIRQPSEKGLEWLAHIWWDDDKYYNPALKSRLTISKDTSKNQIFLKITNVDTAETATYYCSRIGNYGSNYWYFDVWGTGTTVTVSS
VL: QIVLTQSPAVMSASPGEKVTMTCTASSSVYYMYWYQQTPGSSPRLLIYDTSNLASGVPVRFSGSGSGTSYSLTISRMEAEDAATYYCQQWNTYPLTFGAGTKLELK
notes: mouse IgG, kappa light chain; also called clone #44; purified antibody 44
hiR2-FL-R554A-T7
  loss of binding vs wild type: ≥ 60%
hiR2-FL-G587A-T7
  loss of binding vs wild type: ≥ 30%

B5: antibody 43 (antibody, V domains shown)
VH: QVALKESGPGILQPSQTLSLTCSFSGFSLSTFGMGVGWIRQSSGKGLEWLANIWWDDDKYYNPALKSRLTISKDASKNQAFLKIANVDTADTATYYCARIGNYGSNYWYFDVWGTGTTVTVSS
VL: QIVLTQSPAIMSASPGERVTMTCSANSRISYMYWYQQKPGSSPRLLIYDTSNLASGVPVRFSGSGSGTSYSLTISRMEAEDAATYNCQQWSSYPLTFGAGTKLELK
notes: mouse IgG, kappa light chain; also called clone #43; purified antibody 43
hiR2-FL-R554A-T7
  loss of binding vs wild type: ≥ 30%
hiR2-FL-G587A-T7
  loss of binding vs wild type: ≥ 30%

B6: antibody 22 (antibody, V domains shown)
VH: QVTLKESGPGILQPSQTLSLTCSFSGFSLSTFGMGVGWIRQPSGKGLEWLAHIWWDDEKYYNSALKSRLTISKATSKNQVFLKIANVDTADTATYYCARISNYGSNYWYFNVWGTGTTVTVSS
VL: QVVLTQSPALMSASPGEKVTMTCSAGSSVSYMYWYQQKPGSSPRVLIYDTSNLASGVPARFTGSGSGTSYSLTISRMEAEDAATYYCQQWNSYPLTFGAGTKLELK
notes: mouse IgG, kappa light chain; also called clone #22; purified antibody 22
hiR2-FL-R554A-T7
  loss of binding vs wild type: ≥ 30%
